Test results taken from paper PMC4191399.
Changes are numbered by the printed parent chain.

Legend:
Experiment in all cases: fluorescence polarization
Details in all cases: internal 6-carboxyfluorescein in backbone between U12 and C13 (central tetraloop bases); 25 mM MOPS pH 7.4, 150 mM KCl, 2 mM DTT, 2 mM MgCl2, 0.01% Triton X-100, 1 nM RNA, room temperature, 1 h
[1] = molecular target: T1, RIG-I R791A R791A (Homo sapiens) (UniProt O95786)
T1 sequence: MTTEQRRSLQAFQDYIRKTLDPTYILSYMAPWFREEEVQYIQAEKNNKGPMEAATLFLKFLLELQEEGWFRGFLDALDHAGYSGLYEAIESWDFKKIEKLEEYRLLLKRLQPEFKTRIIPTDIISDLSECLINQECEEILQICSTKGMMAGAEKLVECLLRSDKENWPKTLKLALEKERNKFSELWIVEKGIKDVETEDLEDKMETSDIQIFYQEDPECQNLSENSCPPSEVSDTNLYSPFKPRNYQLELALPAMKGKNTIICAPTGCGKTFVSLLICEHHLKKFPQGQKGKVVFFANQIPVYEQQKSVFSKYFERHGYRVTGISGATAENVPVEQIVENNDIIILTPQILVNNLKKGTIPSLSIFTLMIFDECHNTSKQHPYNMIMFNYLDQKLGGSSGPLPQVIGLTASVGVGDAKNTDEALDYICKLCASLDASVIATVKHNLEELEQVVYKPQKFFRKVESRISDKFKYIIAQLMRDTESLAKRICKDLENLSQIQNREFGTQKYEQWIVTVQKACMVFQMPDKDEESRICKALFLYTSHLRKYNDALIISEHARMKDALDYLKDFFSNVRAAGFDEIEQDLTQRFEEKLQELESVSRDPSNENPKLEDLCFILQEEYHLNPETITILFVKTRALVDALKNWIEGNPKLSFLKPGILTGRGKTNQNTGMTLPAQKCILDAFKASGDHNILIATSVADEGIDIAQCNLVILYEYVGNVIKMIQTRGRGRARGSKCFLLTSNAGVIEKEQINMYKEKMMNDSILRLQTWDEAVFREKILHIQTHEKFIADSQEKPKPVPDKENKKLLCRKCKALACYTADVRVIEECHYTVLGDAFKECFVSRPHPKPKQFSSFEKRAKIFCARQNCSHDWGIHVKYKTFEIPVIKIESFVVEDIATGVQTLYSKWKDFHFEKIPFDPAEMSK

[2] = molecular target: T2, RIG-I Q784A/R791A Q784A;R791A (Homo sapiens) (UniProt O95786)
T2 sequence: T1 sequence with Q784A

[3] = molecular target: T3, RIG-I WT (Homo sapiens) (UniProt O95786)
T3 sequence: T1 sequence with A791R

## GGACGUACGUUUCGACGUACGUCC [5'OH10L-F]
[1]
  Kd: 50.7 nM
[2]
  Kd: 91.4 nM
[3]
  Kd: 25 nM
